Measurements taken from patent US6514936 (Bayer, dated 2003).

B1: tICAM(453) (receptor)
chain: QTSVSPSKVILPRGGSVLVTCSTSCDQPKLLGIETPLPKKELLLPGNNRKVYELSNVQEDSQPMCYSNCPDGQSTAKTFLTVYWTPERVELAPLPSWQPVGKNLTLRCQVEGGAPRANLTVVLLRGEKELKREPAVGEPAEVTTTVLVRRDHHGANFSCRTELDLRPQGLELFENTSAPYQLQTFVLPATPPQLVSPRVLEVDTQGTVVCSLDGLFPVSEAQVHLALGDQRLNPTVTYGNDSFSAKASVSVTAEDEGTQRLTCAVILGNQSQETLQTVTIYSFPAPNVILTKPEVSEGTEVTVKCEAHPRAKVTLNGVPAQPLGPRAQLLLKATPEDNGRSFSCSATLEVAGQLIHKNQTRELRVLYGPRLDERDCPGNWTWPENSQQTPMCQAWGNPLPELKCLKDGTFPLPIGESVTVTRDLEGTYLCRARSTQGEVTRKVTVNVLSPRYE
notes: range 1-453; On the UniProt precursor it is shifted by the length of the signal peptide; also called truncated ICAM, domains I-V; entire extracellular domain of ICAM-1
B2: tICAM(185) (receptor)
chain: QTSVSPSKVILPRGGSVLVTCSTSCDQPKLLGIETPLPKKELLLPGNNRKVYELSNVQEDSQPMCYSNCPDGQSTAKTFLTVYWTPERVELAPLPSWQPVGKNLTLRCQVEGGAPRANLTVVLLRGEKELKREPAVGEPAEVTTTVLVRRDHHGANFSCRTELDLRPQGLELFENTSAPYQLQTF
notes: range 1-185; On the UniProt precursor it is shifted by the length of the signal peptide; also called truncated ICAM, domains I and II; two N-terminal domains of ICAM-1
B3: Transmembrane intercellular adhesion molecule-1 (tmICAM-1) (receptor, human, UniProt P05362 28-532, looked up)
chain: QTSVSPSKVILPRGGSVLVTCSTSCDQPKLLGIETPLPKKELLLPGNNRKVYELSNVQEDSQPMCYSNCPDGQSTAKTFLTVYWTPERVELAPLPSWQPVGKNLTLRCQVEGGAPRANLTVVLLRGEKELKREPAVGEPAEVTTTVLVRRDHHGANFSCRTELDLRPQGLELFENTSAPYQLQTFVLPATPPQLVSPRVLEVDTQGTVVCSLDGLFPVSEAQVHLALGDQRLNPTVTYGNDSFSAKASVSVTAEDEGTQRLTCAVILGNQSQETLQTVTIYSFPAPNVILTKPEVSEGTEVTVKCEAHPRAKVTLNGVPAQPLGPRAQLLLKATPEDNGRSFSCSATLEVAGQLIHKNQTRELRVLYGPRLDERDCPGNWTWPENSQQTPMCQAWGNPLPELKCLKDGTFPLPIGESVTVTRDLEGTYLCRARSTQGEVTRKVTVNVLSPRYEIVIITVVAAAVIMGTAGLSTYLYNRQRKIKKYRLQQAQKGTPMKPNTQATPP
notes: mature; also called HRR; human rhinovirus receptor

Experiments:
[1] = target: T1, Human rhinovirus serotype 3 (HRV3), purified virion (human rhinovirus serotype 3, UniProt Q82081 562-855; Q82081 70-331; Q82081 332-561; Q82081 2-69); experiment: cell-based or functional assay
T1 sequence 1: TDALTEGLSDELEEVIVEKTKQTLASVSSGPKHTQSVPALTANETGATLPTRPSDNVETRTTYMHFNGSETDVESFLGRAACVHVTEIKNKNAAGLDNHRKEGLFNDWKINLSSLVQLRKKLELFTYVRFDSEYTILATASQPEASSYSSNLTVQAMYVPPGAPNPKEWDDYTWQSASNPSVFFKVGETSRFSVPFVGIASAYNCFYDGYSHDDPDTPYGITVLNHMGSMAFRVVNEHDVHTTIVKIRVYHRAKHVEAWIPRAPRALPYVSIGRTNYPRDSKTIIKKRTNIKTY
T1 sequence 2: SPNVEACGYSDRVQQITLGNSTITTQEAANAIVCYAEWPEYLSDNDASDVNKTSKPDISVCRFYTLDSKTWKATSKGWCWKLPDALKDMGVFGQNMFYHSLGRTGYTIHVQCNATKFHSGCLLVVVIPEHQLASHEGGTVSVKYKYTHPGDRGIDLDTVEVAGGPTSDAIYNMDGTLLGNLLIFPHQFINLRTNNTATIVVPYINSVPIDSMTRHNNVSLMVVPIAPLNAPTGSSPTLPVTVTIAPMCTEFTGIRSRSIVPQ
T1 sequence 3: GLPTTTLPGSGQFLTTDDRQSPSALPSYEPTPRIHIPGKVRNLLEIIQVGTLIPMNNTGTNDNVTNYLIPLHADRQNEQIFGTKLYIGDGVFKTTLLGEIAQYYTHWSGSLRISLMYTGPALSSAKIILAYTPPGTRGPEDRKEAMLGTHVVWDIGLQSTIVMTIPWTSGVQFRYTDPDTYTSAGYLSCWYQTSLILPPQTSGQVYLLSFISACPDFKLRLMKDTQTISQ
T1 sequence 4: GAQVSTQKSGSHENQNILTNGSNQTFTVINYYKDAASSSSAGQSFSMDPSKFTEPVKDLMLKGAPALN

[2] = target: T1, Human rhinovirus serotype 3 (HRV3), …; experiment: cell-based or functional assay; remark: listed apart in the source
[3] = target: T1, Human rhinovirus serotype 3 (HRV3), …; experiment: solid-phase competition against [35S]-HRV3 binding to ICAM-1-coated plates
[4] = target: T1, Human rhinovirus serotype 3 (HRV3), …; experiment: pelleting assay, [35S]-cysteine-labelled ICAM mixed with HRV3 and centrifuged; average of 4 experiments
[5] = target: T1, Human rhinovirus serotype 3 (HRV3), …; experiment: solid-phase competition, soluble ICAM against [35S]-HRV3 binding to ICAM-1-coated plates, 0.1% Triton X-100; average of three experiments ± S.D.
[6] = target: T1, Human rhinovirus serotype 3 (HRV3), …; experiment: dot-blot, normalised [35S]-HRV3 binding of immobilised ICAM against that of immobilised tICAM(453)

Row | Binder | neutralization IC50 in Assay III relative to tICAM(185) [1] [fold] | IC50, neutralization of HRV3 infectivity, Assay I (continuous) [2] [µM] | IC50, neutralization of HRV3 infectivity, Assay II (Pretreatment) [2] [µM] | IC50, neutralization of HRV3 infectivity, Assay III (high MOI) [2] [µM] | fold higher IC50 than tmICAM [3] [fold] | % ICAM Pelleted [4] [%] | IC50 [5] [µM] | fold difference of IC50 against tICAM(453) [3] [fold] | ratio ICAM/tICAM (453) [6]
1 | B1 | 11 | 0.38 | < 20 | 1.2 | 350 | 1 | 3.1 | – | –
2 | B2 | – | 8.2 | < 20 | 13.2 | 1000 | 4.3 | 9.7 | 3 | –
3 | B3 | – | – | – | – | – | 11.6 | 0.008 | – | 2.3
